Results published in patent publication US20140178963A1 (MINERVA BIOTECHNOLOGIES, published 2014).

Target: T1, NM23-wt containing the Strep-tag II (UniProt P15531 1-152, limits assumed)
T1 construct: Strep-tag II version used in the nanoparticle assay; also called wild type hexamers; not shown: Strep-tag II
Assay: gold nanoparticle color change assay
Source text: A nanoparticle assay was used to characterize the binding of NM23 dimers versus hexamers. A MUC1*ecd peptide ([…]) (SEQ ID NO:44) was immobilized on NTA-SAM-coated gold colloids. NM23-wt, NM23S120G-dimer and NM23S120G-hexamer were expressed and purified with the Strep-tag II (FIG. 22c). The addition of NM23S120G-dimer induced a pink to blue solution color change, indicating a specific binding, which was then inhibited by the addition of an anti-MUC1* Fab.

T1 sequence (P15531 whole entry): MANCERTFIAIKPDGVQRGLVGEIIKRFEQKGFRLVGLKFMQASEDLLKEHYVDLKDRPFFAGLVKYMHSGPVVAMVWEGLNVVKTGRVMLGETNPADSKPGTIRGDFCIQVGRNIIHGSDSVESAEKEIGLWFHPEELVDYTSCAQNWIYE

B1: MUC1*ecd peptide (QFNQYKTEAASRYNLTISDVSVSDVPFPFSAQSGAHHHHHH) immobilized on NTA-SAM-coated gold colloids (peptide)
peptide: QFNQYKTEAASRYNLTISDVSVSDVPFPFSAQSGAHHHHHH
notes: also called MUC1*ecd peptide (PSMGFR-His tagged)
  binding result: no binding (tested: 64 nM)
